Results on 21 molecules are retold here after US20240010722A1.

“And” between values parts separate entries of the source, which are not always exact repeats. Identical values can stand only once.

B1: MIAB198 (antibody, V domains shown)
VH: EVQLLESGGGLVQPGGSLRLSCAASGFTFSDFWMHWVRQAPGKGLEWISYISGDSGYTNYADSVKGRFTISRDNSKNTLYLQMNSLRAEDTAVYYCARDRPYYYIMDVWGKGTTVTVSS
VL: DIQMTQSPSSLSASVGDRVTITCRASQSVSRSLAWYQQKPGKAPKLLIYAASSLQSGVPSRFSGSGSGTDFTLTISSLQPEDFATYYCQQYKSYPVTFGQGTKVEIK
B2: MIAB160 (antibody, V domains shown)
VH: EVQLLESGGGLVQPGGSLRLSCAASGFTFSDFWMHWVRQAPGKGLEWISYISGDSGYTQYADSVKGRFTISRDNSKNTLYLQMNSLRAEDTAVYYCARDRPYYYYMDVWGKGTTVTVSS
VL: DIQMTQSPSSLSASVGDRVTITCRASQSVSRSLAWYQQKPGKAPKLLIYAASSLQSGVPSRFSGSGSGTDFTLTISSLQPEDFATYYCQQYKSYPVTFGQGTKVEIK
B3: MIAB157 (antibody, V domains shown)
VH: EVQLLESGGGLVQPGGSLRLSCAASGFTFSDFWMHWVRQAPGKGLEWISYISGDSGYTNYADSVKGRFTISRDNSKNTLYLQMNSLRAEDTAVYYCARDRPYYYYMDVWGKGTTVTVSS
VL: DIQMTQSPSSLSASVGDRVTITCRASQSISSYLAWYQQKPGKAPKLLIYAASSLQSGVPSRFSGSGSGTDFTLTISSLQPEDFATYYCQQYKSYPVTFGQGTKVEIK
B4: MIAB131 (antibody, V domains shown)
VH: EVQLLESGGGLVQPGGSLRLSCAASGFTFSDFWMHWVRQAPGKGLEWISYISGDSGYTNYADSVKGRFTISRDNSKNTLYLQMNSLRAEDTAVYYCARDRPYYYGMDVWGKGTTVTVSS
VL: DIQMTQSPSSLSASVGDRVTITCRASQSVSRSLAWYQQKPGKAPKLLIYAASSLQSGVPSRFSGSGSGTDFTLTISSLQPEDFATYYCQQYKSYPVTFGQGTKVEIK
B5: MIAB166 (antibody, V domains shown)
VH: EVQLLESGGGLVQPGGSLRLSCAASGFTFSDFWMHWVRQAPGKGLEWISYISGDSGYTNYADSVKGRFTISRDNSKNTLYLQMNSLRAEDTAVYYCARDRPYYYYMDVWGKGTTVTVSS
VL: DIQMTQSPSSLSASVGDRVTITCRASQSVSRSLEWYQQKPGKAPKLLIYAASSLQSGVPSRFSGSGSGTDFTLTISSLQPEDFATYYCQQYKSYPVTFGQGTKVEIK
B6: MIAB162 (antibody, V domains shown)
VH: EVQLLESGGGLVQPGGSLRLSCAASGFTFSDFWMHWVRQAPGKGLEWISYISGDSGYTNYADSVKGRFTISRDNSKNTLYLQMNSLRAEDTAVYYCARDRPYYYYMDVWGKGTTVTVSS
VL: DIQMTQSPSSLSASVGDRVTITCRASQSVSRSLGWYQQKPGKAPKLLIYAASSLQSGVPSRFSGSGSGTDFTLTISSLQPEDFATYYCQQYKSYPVTFGQGTKVEIK
B7: MIAB155 (antibody, V domains shown)
VH: EVQLLESGGGLVQPGGSLRLSCAASGFTFSDFWMHWVRQAPGKGLEWISYISGDSGYTNYADSVKGRFTISRDNSKNTLYLQMNSLRAEDTAVYYCARDRPYYYYMDVWGKGTTVTVSS
VL: DIQMTQSPSSLSASVGDRVTITCRASQSISSSLNWYQQKPGKAPKLLIYAASSLQSGVPSRFSGSGSGTDFTLTISSLQPEDFATYYCQQYKSYPVTFGQGTKVEIK
B8: MIAB167 (antibody, V domains shown)
VH: EVQLLESGGGLVQPGGSLRLSCAASGFTFSDFWMHWVRQAPGKGLEWISYISGDSGYTNYADSVKGRFTISRDNSKNTLYLQMNSLRAEDTAVYYCARDRPYYYYMDVWGKGTTVTVSS
VL: DIQMTQSPSSLSASVGDRVTITCRASQSVSRSLKWYQQKPGKAPKLLIYAASSLQSGVPSRFSGSGSGTDFTLTISSLQPEDFATYYCQQYKSYPVTFGQGTKVEIK
B9: MIAB164 (antibody, V domains shown)
VH: EVQLLESGGGLVQPGGSLRLSCAASGFTFSDFWMHWVRQAPGKGLEWISYISGDSGYTNYADSVKGRFTISRDNSKNTLYLQMNSLRAEDTAVYYCARDRPYYYYMDVWGKGTTVTVSS
VL: DIQMTQSPSSLSASVGDRVTITCRASQSVSRSLTWYQQKPGKAPKLLIYAASSLQSGVPSRFSGSGSGTDFTLTISSLQPEDFATYYCQQYKSYPVTFGQGTKVEIK
B10: MIAB163 (antibody, V domains shown)
VH: EVQLLESGGGLVQPGGSLRLSCAASGFTFSDFWMHWVRQAPGKGLEWISYISGDSGYTNYADSVKGRFTISRDNSKNTLYLQMNSLRAEDTAVYYCARDRPYYYYMDVWGKGTTVTVSS
VL: DIQMTQSPSSLSASVGDRVTITCRASQSVSRSLDWYQQKPGKAPKLLIYAASSLQSGVPSRFSGSGSGTDFTLTISSLQPEDFATYYCQQYKSYPVTFGQGTKVEIK
B11: MIAB165 (antibody, V domains shown)
VH: EVQLLESGGGLVQPGGSLRLSCAASGFTFSDFWMHWVRQAPGKGLEWISYISGDSGYTNYADSVKGRFTISRDNSKNTLYLQMNSLRAEDTAVYYCARDRPYYYYMDVWGKGTTVTVSS
VL: DIQMTQSPSSLSASVGDRVTITCRASQSVSRSLSWYQQKPGKAPKLLIYAASSLQSGVPSRFSGSGSGTDFTLTISSLQPEDFATYYCQQYKSYPVTFGQGTKVEIK
B12: MIAB152 (antibody, V domains shown)
VH: EVQLLESGGGLVQPGGSLRLSCAASGFTFSDFWMHWVRQAPGKGLEWISYISGDSGYTNYADSVKGRFTISRDNSKNTLYLQMNSLRAEDTAVYYCARDRPYYYYMDVWGKGTTVTVSS
VL: DIQMTQSPSSLSASVGDRVTITCRASQSVSSYLAWYQQKPGKAPKLLIYAASSLQSGVPSRFSGSGSGTDFTLTISSLQPEDFATYYCQQYKSYPVTFGQGTKVEIK
B13: MIAB156 (antibody, V domains shown)
VH: EVQLLESGGGLVQPGGSLRLSCAASGFTFSDFWMHWVRQAPGKGLEWISYISGDSGYTNYADSVKGRFTISRDNSKNTLYLQMNSLRAEDTAVYYCARDRPYYYYMDVWGKGTTVTVSS
VL: DIQMTQSPSSLSASVGDRVTITCRASQSISRYLNWYQQKPGKAPKLLIYAASSLQSGVPSRFSGSGSGTDFTLTISSLQPEDFATYYCQQYKSYPVTFGQGTKVEIK
B14: MIAB150 (antibody, V domains shown)
VH: EVQLLESGGGLVQPGGSLRLSCAASGFTFSDFWMHWVRQAPGKGLEWISYISGDSGYTNYADSVKGRFTISRDNSKNTLYLQMNSLRAEDTAVYYCARDRPYYYYMDVWGKGTTVTVSS
VL: DIQMTQSPSSLSASVGDRVTITCRASQSISRYLAWYQQKPGKAPKLLIYAASSLQSGVPSRFSGSGSGTDFTLTISSLQPEDFATYYCQQYKSYPVTFGQGTKVEIK
B15: MIAB129 (antibody, V domains shown)
VH: EVQLLESGGGLVQPGGSLRLSCAASGFTFSDFWMHWVRQAPGKGLEWISYISGDSGYTNYADSVKGRFTISRDNSKNTLYLQMNSLRAEDTAVYYCARDRPGYYYMDVWGKGTTVTVSS
VL: DIQMTQSPSSLSASVGDRVTITCRASQSVSRSLAWYQQKPGKAPKLLIYAASSLQSGVPSRFSGSGSGTDFTLTISSLQPEDFATYYCQQYKSYPVTFGQGTKVEIK
B16: MIAB154 (antibody, V domains shown)
VH: EVQLLESGGGLVQPGGSLRLSCAASGFTFSDFWMHWVRQAPGKGLEWISYISGDSGYTNYADSVKGRFTISRDNSKNTLYLQMNSLRAEDTAVYYCARDRPYYYYMDVWGKGTTVTVSS
VL: DIQMTQSPSSLSASVGDRVTITCRASQSVSRYLNWYQQKPGKAPKLLIYAASSLQSGVPSRFSGSGSGTDFTLTISSLQPEDFATYYCQQYKSYPVTFGQGTKVEIK
B17: MIAB158 (antibody, V domains shown)
VH: EVQLLESGGGLVQPGGSLRLSCAASGFTFSDFWMHWVRQAPGKGLEWISYISGDSGYTNYADSVKGRFTISRDNSKNTLYLQMNSLRAEDTAVYYCARDRPYYYYMDVWGKGTTVTVSS
VL: DIQMTQSPSSLSASVGDRVTITCRASQSVSSYLNWYQQKPGKAPKLLIYAASSLQSGVPSRFSGSGSGTDFTLTISSLQPEDFATYYCQQYKSYPVTFGQGTKVEIK
B18: MIAB161 (antibody, V domains shown)
VH: EVQLLESGGGLVQPGGSLRLSCAASGFTFSDFWMHWVRQAPGKGLEWISYISGDSGYTNYADSVKGRFTISRDQSKNTLYLQMNSLRAEDTAVYYCARDRPYYYYMDVWGKGTTVTVSS
VL: DIQMTQSPSSLSASVGDRVTITCRASQSVSRSLAWYQQKPGKAPKLLIYAASSLQSGVPSRFSGSGSGTDFTLTISSLQPEDFATYYCQQYKSYPVTFGQGTKVEIK
B19: MIAB159 (antibody, V domains shown)
VH: EVQLLESGGGLVQPGGSLRLSCAASGFTFSDFWMHWVRQAPGKGLEWISYISGESGYTNYADSVKGRFTISRDNSKNTLYLQMNSLRAEDTAVYYCARDRPYYYYMDVWGKGTTVTVSS
VL: DIQMTQSPSSLSASVGDRVTITCRASQSVSRSLAWYQQKPGKAPKLLIYAASSLQSGVPSRFSGSGSGTDFTLTISSLQPEDFATYYCQQYKSYPVTFGQGTKVEIK
B20: MIAB130 (antibody, V domains shown)
VH: EVQLLESGGGLVQPGGSLRLSCAASGFTFSDFWMHWVRQAPGKGLEWISYISGDSGYTNYADSVKGRFTISRDNSKNTLYLQMNSLRAEDTAVYYCARDRPYYYQMDVWGKGTTVTVSS
VL: DIQMTQSPSSLSASVGDRVTITCRASQSVSRSLAWYQQKPGKAPKLLIYAASSLQSGVPSRFSGSGSGTDFTLTISSLQPEDFATYYCQQYKSYPVTFGQGTKVEIK
B21: MIAB128 (antibody, V domains shown)
VH: EVQLLESGGGLVQPGGSLRLSCAASGFTFSDFWMHWVRQAPGKGLEWISYISGDSGYTNYADSVKGRFTISRDNSKNTLYLQMNSLRAEDTAVYYCARDRPNYYYMDVWGKGTTVTVSS
VL: DIQMTQSPSSLSASVGDRVTITCRASQSVSRSLAWYQQKPGKAPKLLIYAASSLQSGVPSRFSGSGSGTDFTLTISSLQPEDFATYYCQQYKSYPVTFGQGTKVEIK

Chain of Insulin (P01308 25-54, chain 1 of 2): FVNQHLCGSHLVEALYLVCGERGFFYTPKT
Chain of Insulin (P01308 90-110, chain 2 of 2): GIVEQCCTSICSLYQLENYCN

This experiment addresses Insulin. Description: polyreactivity ELISA on insulin coat, 100 nM. (In an ELISA, binding on a coated surface is turned into a signal by an enzyme label.)
As for B1, the Insulin polyreactivity score was 3.19 and 3.63.
B2: the Insulin polyreactivity score came out at 17.8.
B3 returned an Insulin polyreactivity score of 3.99.
Under B4 stands 8.
Under B5 stands 7.89; under B6, 5.31; under B7, 1.99.
Take B8: the Insulin polyreactivity score stood at 29.6.
Next, B9: 7.07; B10: 18.5; B11: 9.53.
In turn, B12 yielded an Insulin polyreactivity score of 2.83.
The molecule B13 gave an Insulin polyreactivity score of 45.2.
Under B14 stands 3.74.
Next, B15: 2.43.
Under B16 stands 61.9; under B17, 2.67; under B18, 5.
Molecule B19 yielded an Insulin polyreactivity score of 4.66.
Under B20 stands 3.26.
Molecule B21 showed an Insulin polyreactivity score of 2.62.
